Data as given in patent US10377811B2, “Peptides, combination of peptides as targets and for use in immunotherapy against gallbladder cancer and cholangiocarcinoma and other cancers” (Immatics biotechnologies GmbH, priority 2016, dated 2019).

Key:
HLA-A*02:01 = HLA-A*02:01 (Homo sapiens, UniProt P04439, D140Y/D185E/D98H/E176V/E277Q/G131W/G231S/I119V/I121R/I166T/I218V/L300P/L318F/N151K/N90K/P208A/P217A/Q86G/Q94H/R138H/R169H/T345S); assay: MHC binding assay (UV-ligand exchange, β2m ELISA); conditions: peptide exchange yield
From the text: Candidate peptides for T cell based therapies according to the present invention were further tested for their MHC binding capacity (affinity). The individual peptide-MHC complexes were produced by UV-ligand exchange, where a UV-sensitive peptide is cleaved upon UV-irradiation, and exchanged with the peptide of interest as analyzed. Only peptide candidates that can effectively bind and stabilize the peptide-receptive MHC molecules prevent dissociation of the MHC complexes. To determine the yield of the exchange reaction, an ELISA was performed based on the detection of the light chain (β2m) of stabilized MHC complexes. The assay was performed as generally described in Rodenko et al. (Rodenko et al., 2006).
96 well MAXISorp plates (NUNC) were coated over night with 2 ug/ml streptavidin in PBS at room temperature, washed 4× and blocked for 1 h at 37° C. in 2% BSA containing blocking buffer. Refolded HLA-A*02:01/MLA-001 monomers served as standards, covering the range of 15-500 ng/ml. Peptide-MHC monomers of the UV-exchange reaction were diluted 100-fold in blocking buffer. Samples were incubated for 1 h at 37° C., washed four times, incubated with 2 ug/ml HRP conjugated anti-β2 m for 1 h at 37° C., washed again and detected with TMB solution that is stopped with […]. Absorption was measured at 450 nm. Candidate peptides that show a high exchange yield (preferably higher than 50%, most preferred higher than 75%) are generally preferred for a generation and production of antibodies or fragments thereof, and/or T cell receptors or fragments thereof, as they show sufficient avidity to the MHC molecules and prevent dissociation of the MHC complexes.

[1] = tested on: CD8+ T cells of healthy HLA-A*02 donors; assay: In vitro T-cell priming immunogenicity assay with aAPCs loaded with peptide/MHC complexes and anti-CD28 antibody, multimer readout; format: cell-based, human; conditions: for Wells positive [%]: HLA-A*02 restricted peptides, percentage of positive wells among evaluable, Table 10B; for wells (in vitro immunogenicity): HLA class I peptides, Table 10A
From the text: In order to obtain information regarding the immunogenicity of the TUMAPs of the present invention, the inventors performed investigations using an in vitro T-cell priming assay based on repeated stimulations of CD8+ T cells with artificial antigen presenting cells (aAPCs) loaded with peptide/MHC complexes and anti-CD28 antibody.
In order to perform in vitro stimulations by artificial antigen presenting cells loaded with peptide-MHC complex (pMHC) and anti-CD28 antibody, the inventors first isolated CD8+ T cells from fresh HLA-A*02 leukapheresis products via positive selection using CD8 microbeads (Miltenyi Biotec, Bergisch-Gladbach, Germany) of healthy donors obtained from the University clinics Mannheim, Germany, after informed consent.
PBMCs and isolated CD8+ lymphocytes were incubated in T-cell medium (TCM) until use consisting of RPMI-Glutamax (Invitrogen, Karlsruhe, Germany) supplemented with 10% heat inactivated human AB serum (PAN-Biotech, Aidenbach, Germany), 100 U/ml Penicillin/100 μg/ml Streptomycin (Cambrex, Cologne, Germany), 1 mM sodium pyruvate (CC Pro, Oberdorla, Germany), 20 μg/ml Gentamycin (Cambrex). 2.5 ng/ml IL-7 (PromoCell, Heidelberg, Germany) and 10 U/ml IL-2 (Novartis Pharma, Nürnberg, Germany) were also added to the TCM at this step.
Generation of pMHC/anti-CD28 coated beads, T-cell stimulations and readout was performed in a highly defined in vitro system using four different pMHC molecules per stimulation condition and 8 different pMHC molecules per readout condition.
The purified co-stimulatory mouse IgG2a anti human CD28 Ab 9.3 (Jung et al., 1987) was chemically biotinylated using Sulfo-N-hydroxysuccinimidobiotin as recommended by the manufacturer (Perbio, Bonn, Germany). Beads used were 5.6 μm diameter streptavidin coated polystyrene particles (Bangs Laboratories, Ill., USA).
800.000 beads/200 μl were coated in 96-well plates in the presence of 4×12.5 ng different biotin-pMHC, washed and 600 ng biotin anti-CD28 were added subsequently in a volume of 200 μl. Stimulations were initiated in 96-well plates by co-incubating […] CD8+ T cells with 2×10^5 washed coated beads in 200 μl TCM supplemented with 5 ng/ml IL-12 (PromoCell) for 3 days at 37° C. Half of the medium was then exchanged by fresh TCM supplemented with 80 U/ml IL-2 and incubating was continued for 4 days at 37° C. This stimulation cycle was performed for a total of three times. For the pMHC multimer readout using 8 different pMHC molecules per condition, a two-dimensional combinatorial coding approach was used as previously described (Andersen et al., 2012) with minor modifications encompassing coupling to 5 different fluorochromes. Finally, multimeric analyses were performed by staining the cells with Live/dead near IR dye (Invitrogen, Karlsruhe, Germany), CD8-FITC antibody clone SK1 (BD, Heidelberg, Germany) and fluorescent pMHC multimers. For analysis, a BD LSRII SORP cytometer equipped with appropriate lasers and filters was used. Peptide specific cells were calculated as percentage of total CD8+ cells. Evaluation of multimeric analysis was done using the FlowJo software (Tree Star, Oreg., USA). In vitro priming of specific multimer+ CD8+ lymphocytes was detected by comparing to negative control stimulations.

## 1 (YAAEIASAL; listed as Homo sapiens) [compound 1]
HLA-A*02:01
  Peptide exchange (MHC class I binding score): +++ (>50 = +++)

## 10 (SAFPFPVTVSL; listed as Homo sapiens) [compound 10]
HLA-A*02:01
  Peptide exchange (MHC class I binding score): ++ (>20% = ++)

## 18 (SLSPDLSQV; listed as Homo sapiens) [compound 18]
HLA-A*02:01
  Peptide exchange (MHC class I binding score): +++ (>50 = +++)

## 13 (VLPRAFTYV; listed as Homo sapiens) [compound 13]
[1]
  Wells positive [%]: ++++ (> = 70% = ++++)
HLA-A*02:01
  Peptide exchange (MHC class I binding score): ++++ (>75% = ++++)

## 26 (TAQTLVRIL; listed as Homo sapiens) [compound 26]
HLA-A*02:01
  Peptide exchange (MHC class I binding score): + (>10% = +)

## 36 (ILVDWLVQV; listed as Homo sapiens) [compound 36]
[1]
  wells (in vitro immunogenicity): ++ (20%-49% = ++)

## 11 (SIIDFTVTM; listed as Homo sapiens) [compound 11]
HLA-A*02:01
  Peptide exchange (MHC class I binding score): ++++ (>75% = ++++)

## 12 (TILPGNLQSW; listed as Homo sapiens) [compound 12]
HLA-A*02:01
  Peptide exchange (MHC class I binding score): + (>10% = +)

## 32 (YVISQVFEI; listed as Homo sapiens) [compound 32]
HLA-A*02:01
  Peptide exchange (MHC class I binding score): ++++ (>75% = ++++)

## 35 (GLIDEVMVL; listed as Homo sapiens) [compound 35]
[1]
  wells (in vitro immunogenicity): ++ (20%-49% = ++)

## 30 (FASGLIHRV; listed as Homo sapiens) [compound 30]
HLA-A*02:01
  Peptide exchange (MHC class I binding score): +++ (>50 = +++)

## 22 (SAFGFPVIL; listed as Homo sapiens) [compound 22]
HLA-A*02:01
  Peptide exchange (MHC class I binding score): ++ (>20% = ++)

## 21 (IAFPTSISV; listed as Homo sapiens) [compound 21]
HLA-A*02:01
  Peptide exchange (MHC class I binding score): +++ (>50 = +++)

## 5 (GLIDEVMVLL; listed as Homo sapiens) [compound 5]
HLA-A*02:01
  Peptide exchange (MHC class I binding score): ++++ (>75% = ++++)

## 24 (ISAPLVKTL; listed as Homo sapiens) [compound 24]
HLA-A*02:01
  Peptide exchange (MHC class I binding score): + (>10% = +)

## 29 (FASEVSNVL; listed as Homo sapiens) [compound 29]
HLA-A*02:01
  Peptide exchange (MHC class I binding score): ++++ (>75% = ++++)

## 19 (TAYPQVVVV; listed as Homo sapiens) [compound 19]
HLA-A*02:01
  Peptide exchange (MHC class I binding score): ++ (>20% = ++)

## 17 (VLYDNTQLQL; listed as Homo sapiens) [compound 17]
HLA-A*02:01
  Peptide exchange (MHC class I binding score): ++++ (>75% = ++++)

## 2 (AAYPEIVAV; listed as Homo sapiens) [compound 2]
HLA-A*02:01
  Peptide exchange (MHC class I binding score): +++ (>50 = +++)

## 23 (SLLSELLGV; listed as Homo sapiens) [compound 23]
HLA-A*02:01
  Peptide exchange (MHC class I binding score): ++++ (>75% = ++++)

## 14 (YGIEFVVGV; listed as Homo sapiens) [compound 14]
HLA-A*02:01
  Peptide exchange (MHC class I binding score): ++++ (>75% = ++++)

## 38 (KIQEILTQV; listed as Homo sapiens) [compound 38]
[1]
  wells (in vitro immunogenicity): ++ (20%-49% = ++)

## 8 (LSASLVRIL; listed as Homo sapiens) [compound 8]
HLA-A*02:01
  Peptide exchange (MHC class I binding score): + (>10% = +)

## 34 (LLWGNLPEI; listed as Homo sapiens) [compound 34]
[1]
  wells (in vitro immunogenicity): ++ (20%-49% = ++)

## 15 (SVIDSLPEI; listed as Homo sapiens) [compound 15]
HLA-A*02:01
  Peptide exchange (MHC class I binding score): ++++ (>75% = ++++)

## 4 (FLLEAQNYL; listed as Homo sapiens) [compound 4]
HLA-A*02:01
  Peptide exchange (MHC class I binding score): ++++ (>75% = ++++)

## 3 (EMDSTVITV; listed as Homo sapiens) [compound 3]
HLA-A*02:01
  Peptide exchange (MHC class I binding score): +++ (>50 = +++)

## 7 (LLLSDPDKVTI; listed as Homo sapiens) [compound 7]
HLA-A*02:01
  Peptide exchange (MHC class I binding score): ++++ (>75% = ++++)

## 27 (ALAEQVQKA; listed as Homo sapiens) [compound 27]
HLA-A*02:01
  Peptide exchange (MHC class I binding score): +++ (>50 = +++)

## 16 (AVMTDLPVI; listed as Homo sapiens) [compound 16]
[1]
  Wells positive [%]: + (<20% = +)
HLA-A*02:01
  Peptide exchange (MHC class I binding score): ++++ (>75% = ++++)

## 28 (YASGSSASL; listed as Homo sapiens) [compound 28]
HLA-A*02:01
  Peptide exchange (MHC class I binding score): + (>10% = +)

## 25 (NLSETASTMAL; listed as Homo sapiens) [compound 25]
[1]
  Wells positive [%]: ++ (20%-49% = ++)
HLA-A*02:01
  Peptide exchange (MHC class I binding score): ++++ (>75% = ++++)

## 9 (RLAKLTAAV; listed as Homo sapiens) [compound 9]
HLA-A*02:01
  Peptide exchange (MHC class I binding score): ++++ (>75% = ++++)

## 33 (ILGTEDLIVEV; listed as Homo sapiens) [compound 33]
[1]
  wells (in vitro immunogenicity): ++ (20%-49% = ++)

## 6 (LLLPLLPPLSPS; listed as Homo sapiens) [compound 6]
[1]
  Wells positive [%]: + (<20% = +)
HLA-A*02:01
  Peptide exchange (MHC class I binding score): ++++ (>75% = ++++)

## 31 (IAIPFLIKL; listed as Homo sapiens) [compound 31]
HLA-A*02:01
  Peptide exchange (MHC class I binding score): ++++ (>75% = ++++)

## 20 (VLQDELPQL; listed as Homo sapiens) [compound 20]
HLA-A*02:01
  Peptide exchange (MHC class I binding score): ++++ (>75% = ++++)
